US20030108922A1

What was measured:
[1] = target: mouse IgG (mouse); assay: sandwich immunoassay (SAM + primary Ab + mouse IgG + Ab-AP) on an Au-coated LTCC macrochip, sonicated for 2 min; CV of PAPR; antigen concentration not stated
[2] = target: mouse IgG (mouse); assay: sandwich immunoassay (SAM + primary Ab + mouse IgG + Ab-AP) on an Au-coated silicon wafer macrochip; CV of PAPR; antigen concentration not stated
[3] = target: mouse IgG (mouse); assay: sandwich immunoassay (SAM + primary Ab + mouse IgG + Ab-AP) on an Au-coated LTCC macrochip, not sonicated; CV of PAPR; antigen concentration not stated

signal [1]: 30 Acm^-2
signal [2]: 27.7 Acm^-2
signal [3]: 34.6 Acm^-2
Substance: secondary antibody (to mouse IgG) conjugated to alkaline phosphatase
